Experimental findings from patent US20180221438A1, “MODULATING URACIL-DNA GLYCOSYLASE AND USES THEREOF” (Adaerata Limited Partnership, priority 2015, published 2018) are described below.

One test deals with T1, UNG (Mus musculus, UniProt P97931).
T1 construct: endogenous in cells; host or cells: CH12F3 (CH12F3-2) mouse B lymphoma cells, with or without retrovirally expressed Ugi and shRNAs; sonicated whole-cell extract
In words: UNG activity assay with CH12F3 cell extracts. In kind it is biochemical. Conditions: CH12F3 Ugi cell extracts. As to the method:
UNG activity assay was performed as previously described ^69 with minor modifications. Briefly, exponentially growing cells were washed in 1X PBS buffer, resuspended in HED buffer (25 mM Hepes, 5 mM EDTA, 1 mM dithiothreitol and 10% glycerol at pH 7.8) with complete protease inhibitors (Roche) and lysed by sonication (five pulses of 30 seconds) in a Bioruptor™ (Diagenode). After centrifugation at 14,000 rcf for 20 min at 4° C., the supernatant was frozen in aliquots into liquid nitrogen and stored at […]. UNG assays were carried out in HED buffer by mixing 10 μg of cell extract with 1 pmol of fluorescein-labeled oligonucleotide substrate in a final volume of 10 μl for 3 hours at 37° C. The double-stranded oligonucleotide with a single dU/dG mismatch was made by annealing 5′-[…](SEQ ID NO: 45)-fluorescein (FITC) to the complementary oligonucleotide, 5′-[…]-3′(SEQ ID NO: 46). The reaction was terminated by the addition of 10 UI of formamide loading dye and the products were resolved on 15% TBE-urea polyacrylamide gels. The apyrimidinic endonuclease (APE) activity present in the extracts was sufficient to cleave all the abasic substrate generated by UNG during the reaction. The FITC signal of the reaction products was visualized using a Typhoon Phosphorlmager™ (GE Healthcare).

The next test relates to CH12F3 cells. As to the kind of experiment: ChIP for DNA damage marker at the telomeres. Format: cell-based, mouse. Conditions: CH12F3 Ugi vs CH12F3 GFP. The procedure:
ChIPs to evaluate interaction with the telomeric chromatin or the Ig locus were performed as described previously ^39,61. Briefly, cells were cross-linked with 1% formaldehyde for 20 min at room temperature and reaction was stopped by addition of glycine to 125 mM final concentration. Cells were washed twice with cold PBS, harvested and kept at −80° C. O.N. Samples were resuspended in RIPA buffer (150 mM NaCl, 1% [v/v] Igepal CA-630, 0.5% [w/v] Sodium Deoxycholate, 0.1% [w/v] SDS, 50 mM Tris-HCl at pH 8, 5 mM EDTA, protease and phosphatase inhibitors) and sonicated to generate DNA fragments <500 bp using a Bioruptor™ Next Gen (Diagenode).
In order to increase the sensitivity of the ChIP assays and evaluate the presence of AID at the telomeres we performed the immunoprecipitations with fractions enriched in crosslinked chromatin. For this goal B cells fixed with 1% formaldehyde as described above were resuspended in RIPA buffer, sonicated during 90 seconds using a Bioruptor™ Next Gen (Diagenode), and the lysates were then spun down briefly (2000g, for 5 min at 4 C) to remove debris. […] Samples were then clarified by centrifugation at 20,000 RPM (4° C.) and their protein content was measured using the BCA method (Biorad). […]

T1 sequence (P97931 whole entry): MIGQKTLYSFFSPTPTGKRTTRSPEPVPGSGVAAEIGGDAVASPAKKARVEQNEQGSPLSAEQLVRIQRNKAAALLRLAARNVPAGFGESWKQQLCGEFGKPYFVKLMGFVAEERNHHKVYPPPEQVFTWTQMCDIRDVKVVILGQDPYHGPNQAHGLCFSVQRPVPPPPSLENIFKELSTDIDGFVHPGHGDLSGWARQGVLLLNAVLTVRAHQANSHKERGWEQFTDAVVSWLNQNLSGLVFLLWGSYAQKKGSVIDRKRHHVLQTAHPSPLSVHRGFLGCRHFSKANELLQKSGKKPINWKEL

B1: Ugi: Uracil Glycosylase Inhibitor of Bacillus subtilis bacteriophage PBS1/PBS2, small protein (9.5 kDa), SEQ ID NO: 29; expressed in cells by retroviral delivery (protein)
chain: MTNLSDIIEKETGKQLVIQESILMLPEEVEEVIGNKPESDILVHTAYDESTDENVMLLTSDAPEYKPWALVIQDSNGENKIKML
modifications: bacillus subtilis
notes: expressed in cells by retroviral delivery
As for B1, in the test with UNG, the UNG activity entry is “lacked UNG activity”. Moreover, in the test on CH12F3 cells, the “phospho-ser129-H2AX at the telomeres” value is listed as “AID-dependent accumulation of phospho-ser129-H2AX”.
